Experimental data as given in a protein production outcome set (Wang et al. 2014).

Assay: label from the status in PepcDB records

Sequence	protein production
MAFQVKIHQIRAFVEVARQGSIRGASRMLNMSQPALSKSIQELEEGLAAQLFFRRSKGVTLTDAGESFYQHASLILEELRAAQEDIRQRQGQLAGQINIGMGASISRSLMPAVISRFHQQHPQVKVRIMEGQLVSMINELRQGELDFTINTYYQGPYDHEFTFEKLLEKQFAIFCRPGHPAIGARSIKQLLDYSWTMPTPHGSYYKQLSELLDDQAQTPQVGVVCETFSACISLVAKSDFLSKLPEEMGCDPLHGQGLVMLPVSEILPKAAYYLIQRRDSRQTPLTASLITQFRRECGYLQS	failed
MAFRKPDEIAEAAIEAGMKKIKLPLPSLLVLGFLGGAFIALGYLLDIRVIGDLPKEWGSLSSLIGAAVFPVGLILVVLAGAELITGNMMSVAMALFSRKISVKELAINWGIVTIMNLIGALFVAYFFGHLVGLTETGPYLEKTIAVAQGKLDMSFGKVLISAIGCNWLVCLAVWLSFGAQDAAGKILGIWFPIMAFVAIGFQHVVANMFVIPAAIFAGSFTWGQFIGNIIPAFIGNVIGGAVFVGLIYFIAYHKKDRSRKEMKQVS	failed
MAFSVAYDLIPNKLIKDIDEMNQWLHDKINRAVYLVGFATQQSDYEYKLYELFKALDELEERLKKQLFLFGNQLTESDLYLLATLERFDNIYFCLFKCSLKRIADYPALFRYHNQLRGMESLASTYQPVLTKEHYFMSTMHVLGLEHHHHHH	failed
MAGEKAQKKGKEKWKEKTWYTVESPPYLGSKEVTVALGEDPESMVNRIVEVPISDLTGNFKKSNEKALFRITGCEGTKCKTIFIGHYIGDDYIRRLVRRRKERIDIIEDVKTSDGSIITVKIVVVSDGKLTNTKKSEIRKALTSFIVSKGSQLSYADFVRYLIGDDSYNDMVEATKNIYPLRKIEIRKSELVSLSGMQEPQKNEPAPGGEAIAQNLEHHHHHH	not failed
MAGESGAPIRCRLLPIDMDAALGPPEQMAELEEDLTPMMAQYYELCRQYDDALVLFQVGDFYEAFCAAAKRVARLCEITLTQREDSTGEYPMAGIPIDNAESYVETLLDAGYRVAIADQVEDPDEVSGVVERAVTRIVTPGTLTESELLGGADNNYVAALTAGERYGLALLDISTGDCYATSVGSESAVADELSRFGPAEAIVGPDVDVDRDAVFGPACLVTRYDADAFAQDRAEDRVGQYFGPPERLLAGGAEIRACGGLLAYAEYTRGSSGAVGPDGEPVDPDVDPAGTLDYLNHLTRYDPREYMLLDAVAVESLELFKRRSVRGHENRTLVDTVDETACALGRRKLTDWLRRPLLDADRIEARHGAVAELQRDPATREELSALLAEVYDLERLISRVSRGRANARDLRSLAATLSVVPDIRDHLADADARLLADLHATLDPLAETREEIEAAIRPDPPQQVTEGGVIREGYDEELDRLRSTEQSGKEWIDELEASERERTGIDSLKVGHTSVHGYYIEVTNANLDAVPEDYQRRQTLKNSERYYTPALKEREDEILRAESAADDLEYDLFCAVRDEVADEAERVQALADRLARLDVLVSFAEVAAQYDYCRPTVGSDGIDVTAGRHPVVERTEDAFIPNDTHLGSGPVPASRDGSDDGVTADDIQPFLAVVTGPNMSGKSTYMRQVALICLLAQSGSFVPAKAADLPILDRVFTRVGASDDIAGGRSTFMIEMTELATILDAATENSLVLLDEVGRGTSTADGLAIARAVTEYLHDEVGAYTLFATHHHDLTAVAAALSGATNRHFETSREDGDVRFDHELAPGPAAASYGVEVASMAGVPDSVVERSRDLLADAETADTGVEATRETEVASEPRPGTRADSETDSTATETTGPTENGAASAPAGEATSDDHAQEVFQTNGAAAEDELPESVAQQLASLDVATMTPIEAMNALADLQDRIE	failed
MAGGGNRRDEGSITIQSTNLFAALDTRKKKKKSDKAGKSKGSSKSREPEKEPEPQVYWAPTPLKVKSWADIDDEDDDDDYYATTAPPQSGWSTSLPSHTDSKDVHVEESESEEDILDEGDDDVEEEQEQETEVQVHPEPEVKKAPEVPAPPKEAERQLSKKERKKKELAELEALLADFGVAPKENNGLEESQEAGQEKKEDVNGEGEKKENAAGGESKASKKKKKKDKQKEVKESQEQQANNNADAVDEAAGSEPTEEESPIDVKERIKKLASMKKKKSGKEVDAAAKAAAEEAAARRKKLAAAKKKEKNHYNQQPVR	failed
MAGHTDNEITIAAPMELVWNMTNDIEKWPGLFSEYASVEVLGRDDDKVTFRLTMHPDADGKVWSWVSERVADPVTRTVRAQRVETGPFQYMNIVWEYAETAEGTVMRWTQDFAMKPDAPVDDAWMTDNINRNSRTQMALIRDRIEQAAGERRTASVLADLEHHHHHH	not failed
MAGKLDPYRRKRHFGATPEPEGAHGHHAKAGAKPAARASARGTHPLRFVIQEHHARRLHYDFRLELDGTLKSWAVPKGPSFDPSVKRLAVHVEDHPLEYASFEGQIPEGHYGAGSVVVWDEGTWTPDGGVAQAREGYRAGKLTFRLDGEKLHGGWALVRSGRQEGRQEQWLLIKERDDDARSMDEFDVVGERPGSVHDGAASARADAKNGSARGSRSGQREKSGTSAARHDDHRHDGHAGTPIDPSRIEGAVRAPLPEHVAPQLATLVDGPPTQGDWCYELKFDGYRILARISGKGARRHVKLMTREGRDWTAKLRAQRDALAALDVDAAWLDGEAVVLGKNGLPDFQALQNAFGGGHSDEITLFVFDLPYLDGYDLRDAPLTARRALLEPLFADSDPTRLRFSPDLGNDVASLIASACDTGLEGLIGKRAESRYRAGRSPAWIKLKCRRRQEFVIGGYTEPSGSRHGFGALLLGVHEPAADGKRRRGPGPLRYVGRVGTGFDTRMLDRLTPILRKHERDTMPFDPPPRERSRTPVHWIEPVLVAECEFAEWTGDGIVRQAAFIALREDKPAARIVREVPKHTETEVQMEQRQTTRHERHKPKGAARAERDTSDASDGKHPARSRGSRRAEADDTGPDQLGRVRISHPERVIDSHSGTRKIDLARYWQWVAPWLLRDLKGRPVSLVRAPGDISGELFFQKHAERREIPFVTQHEGLDPGHGPLLSLDSVDALLGAAQMGTIELHTWNAHASNIERPDRIVFDLDPDPALPWSAMIDAAQLVRGLLDELGLISFCKTSGGKGLHVVVPITRHMGWDEVKDFSRAVAQHVAGALPDRFTATMGPKHRRGKIFIDYLRNGRGASTIAAYSVRARPGLGVSVPLRWDEVPDTTGGAQWTIDTLHERLDRLKRDPWDGYDDTRQRITAQMRARLGTS	failed
MAGKRKKPKDTDLPPRVYRGKSKYEFHPARGGSISLCPLDAPISQVWSDYEKVNDRLPEKVTLNKLTEQFLHSMDFCELAIETQKDYRKYSLKLLPVFGEMSPDNIRPEHIRKYMDKRGITSRTQANREKTFLSRVYRWGYERGMVKGNPCRGVKQFTEKARDRYITDEEYDAVYQVAPDVVRVAMEIAYLCLARQADVLALRRDQLREPGIYIKQGKTAARQIKAWSERLRDAITLAESLPLKSGISSVYIIHQRTGLRYTRDGFNSKWRKAREVAKKTYPELDFNFTFHDLKAKGVSDLEGTLSEKQAISGHKNMGQTARYDRKIKIVPVVGNQKK	failed
MAGLPGSVALIIVATAVIWKGSAYFERAAERLSKYYGLPVAVHGAIVVAVGSSFPEISSVVISTVIHDEFSLGVGAIVGSAIFNLLVIPALAALSSEELRSTRDIVHKDAQFYIISVLILFIVFALGATYVPGGTNRAAILTPTLVAVPLMAYGIYVFLHQQDASEHVADETHSVRPGREWGMLGVGLVIITVGVEGMVQGALSLGVIFDTPTFLWGLTVIAAGTSLPDAFVSVRAAKDDDSVTSLTNVLGSNTFNLLVAIPVGVLLAGRATIDFLVAIPTMGFLGAATLVFIVFIRTDLELTDREAYTLLGLYVVFVCWMALESVGLIETVSGI	failed
MAGNFDSEERSSWYWGRLSRQEAVALLQGQRHGVFLVRDSSTSPGDYVLSVSENSRVSHYIINSSGPRPPVPPSPAQPPPGVSPSRLRIGDQEFDSLPALLEFYKIHYLDTTTLIEPVSRSRQGSGVILRQEEAEYVRALFDFNGNDEEDLPFKKGDILRIRDKPEEQWWNAEDSEGKRGMIPVPYVEKYRPASASVSALIGGNQEGSHPQPLGGPEPGPYAQPSVNTPLPNLQNGPIYARVIQKRVPNAYDKTALALEVGELVKVTKINVSGQWEGECNGKRGHFPFTHVRLLDQQNPDEDFS	failed
MAGRRRRPTTDRTIGGLSFSQRELRDLLVAWLALGLAFTFFLEREFRRIVFGQFGGLSGAEIASTFAVSLLTVGVGFLLHELAHKVVAVRFGQIAAFKADYRMLGFAVLGGLVGFLFAAPGAVVHRGRLTAKQHGLIAVAGPVTNLALAVVFLVPFFLTASMGIGGFLRELTEMGLQINLLLAGFNMLPFGPLDGRTVREWSTPVFLAVAVPSILLGVGALFVL	failed
